# Source: patent US12065471B2, “B*44 restricted peptides for use in immunotherapy against cancers and related methods” (Immatics Biotechnologies GmbH, priority 2018, dated 2024)
# Biological target: HLA-B*44:05 (Homo sapiens, UniProt P01889, A223V/A65T/A93T/A95T/D201E/D98Y/E176V/E187L/E204Q/E69K/G107R/H137Y/K202T/L105A/L119I/N104T/N87E/Q56L/Q94N/R106L/R155S/R180D/S101N/S121R/S35A/S48T/T118I/V36M/W191S/Y91S)
# Assay: MHC binding assay (UV-ligand exchange, β2m ELISA, peptide exchange yield)
# Settings: binding to HLA-B*44:05
# In short: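 Binding is read as exchange yield, i.e. stabilized complex remaining after UV cleavage of a photolabile ligand in the presence of the candidate peptide. Streptavidin-captured monomers (100-fold dilution) are probed with HRP-anti-β2m, 1h at 37° C, TMB, A450. Standard curve: HLA-A*02:01/MLA-001 monomers at 15-500 ng/ml.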
row,"Peptide exchange (MHC class I binding score, peptide exchange yield)",Substance
1,++++ (>75% = ++++),282 (KEFGIGDLVW; listed as Homo sapiens) [compound 282]
2,+++ (>50 = +++),161 (GESSEVKAVL; listed as Homo sapiens) [compound 161]
3,+++ (>50 = +++),272 (SEQNIQRANLF; listed as Homo sapiens) [compound 272]
4,++++ (>75% = ++++),189 (ALNGDIYVW; listed as Homo sapiens) [compound 189]
5,+++ (>50 = +++),86 (QTLKAMVQAW; listed as Homo sapiens) [compound 86]
6,+++ (>50 = +++),387 (GEVQENYKL; listed as Homo sapiens) [compound 387]
7,++ (>20% = ++),265 (EDNLIHKF; listed as Homo sapiens) [compound 265]
8,++++ (>75% = ++++),325 (AEQEIMKKV; listed as Homo sapiens) [compound 325]
9,+++ (>50 = +++),106 (SVISDSPRSW; listed as Homo sapiens) [compound 106]
10,++++ (>75% = ++++),336 (QEVNISLHY; listed as Homo sapiens) [compound 336]
11,+++ (>50 = +++),382 (SELNPLALY; listed as Homo sapiens) [compound 382]
12,++ (>20% = ++),159 (EEVQDGKVI; listed as Homo sapiens) [compound 159]
13,+++ (>50 = +++),235 (SESLPRAPL; listed as Homo sapiens) [compound 235]
14,++ (>20% = ++),252 (EEFIGKIGI; listed as Homo sapiens) [compound 252]
15,+++ (>50 = +++),384 (LDGIPTAGW; listed as Homo sapiens) [compound 384]
16,++ (>20% = ++),216 (AGSPVMRKW; listed as Homo sapiens) [compound 216]
17,+++ (>50 = +++),324 (QELSSIRQF; listed as Homo sapiens) [compound 324]
18,+++ (>50 = +++),363 (EECDKAFHF; listed as Homo sapiens) [compound 363]
19,++ (>20% = ++),346 (EEIENLQAQF; listed as Homo sapiens) [compound 346]
20,+++ (>50 = +++),439 (VEVGDRTDW; listed as Homo sapiens) [compound 439]
21,++++ (>75% = ++++),138 (KEAPNIVTL; listed as Homo sapiens) [compound 138]
22,++ (>20% = ++),74 (AELEGALQKA; listed as Homo sapiens) [compound 74]
23,+++ (>50 = +++),434 (AEQQQQQMY; listed as Homo sapiens) [compound 434]
24,+++ (>50 = +++),240 (MELQVSSGF; listed as Homo sapiens) [compound 240]
25,++++ (>75% = ++++),349 (LEWQHPSSW; listed as Homo sapiens) [compound 349]
26,+++ (>50 = +++),416 (DELMRKESQW; listed as Homo sapiens) [compound 416]

row,"Peptide exchange (MHC class I binding score, peptide exchange yield)",Substance
1,++++ (>75% = ++++),317 (TEFQQIINL; listed as Homo sapiens) [compound 317]
2,++ (>20% = ++),377 (AEDARGWTA; listed as Homo sapiens) [compound 377]
3,+++ (>50 = +++),388 (VEIVTIPSL; listed as Homo sapiens) [compound 388]
4,++ (>20% = ++),440 (QEVAQVASA; listed as Homo sapiens) [compound 440]
5,+++ (>50 = +++),245 (MEFQGPMPAGM; listed as Homo sapiens) [compound 245]
6,+++ (>50 = +++),402 (IETSSEYFNF; listed as Homo sapiens) [compound 402]
7,++ (>20% = ++),291 (DEQLLLRF; listed as Homo sapiens) [compound 291]
8,+++ (>50 = +++),236 (LEDQLKPMLEW; listed as Homo sapiens) [compound 236]
9,+++ (>50 = +++),447 (KEFGLDSVEL; listed as Homo sapiens) [compound 447]
10,+++ (>50 = +++),428 (AEEKAAVTSL; listed as Homo sapiens) [compound 428]
11,+++ (>50 = +++),136 (EEMPEEIHL; listed as Homo sapiens) [compound 136]
12,++ (>20% = ++),10 (SEYPTKNYV; listed as Homo sapiens) [compound 10]
13,++++ (>75% = ++++),343 (SEFDLEQVW; listed as Homo sapiens) [compound 343]
14,++++ (>75% = ++++),353 (AETEEGIYW; listed as Homo sapiens) [compound 353]
15,++ (>20% = ++),224 (TETDIDREY; listed as Homo sapiens) [compound 224]
16,+ (>10% = +),92 (KEPSQSCIAQY; listed as Homo sapiens) [compound 92]
17,+++ (>50 = +++),370 (EEVLLANALW; listed as Homo sapiens) [compound 370]
18,++ (>20% = ++),151 (TELQIPSF; listed as Homo sapiens) [compound 151]
19,++ (>20% = ++),429 (RETEDYSKQAL; listed as Homo sapiens) [compound 429]
20,+++ (>50 = +++),246 (HEHGLFNLY; listed as Homo sapiens) [compound 246]
21,+++ (>50 = +++),101 (SEENTGKTY; listed as Homo sapiens) [compound 101]
22,+++ (>50 = +++),445 (QEVGEITNL; listed as Homo sapiens) [compound 445]
23,+++ (>50 = +++),322 (REESDWHYL; listed as Homo sapiens) [compound 322]
24,+++ (>50 = +++),435 (FETEQALRL; listed as Homo sapiens) [compound 435]
25,++++ (>75% = ++++),301 (AERIMFSDL; listed as Homo sapiens) [compound 301]
